Assay [1] deals with T1, LUG/RON2, At4G32551 (Arabidopsis thaliana, UniProt Q9FUY2 1-931).
T1 construct: Endogenous prey in TAP; fusion protein in yeast two-hybrid
T1 sequence (looked up): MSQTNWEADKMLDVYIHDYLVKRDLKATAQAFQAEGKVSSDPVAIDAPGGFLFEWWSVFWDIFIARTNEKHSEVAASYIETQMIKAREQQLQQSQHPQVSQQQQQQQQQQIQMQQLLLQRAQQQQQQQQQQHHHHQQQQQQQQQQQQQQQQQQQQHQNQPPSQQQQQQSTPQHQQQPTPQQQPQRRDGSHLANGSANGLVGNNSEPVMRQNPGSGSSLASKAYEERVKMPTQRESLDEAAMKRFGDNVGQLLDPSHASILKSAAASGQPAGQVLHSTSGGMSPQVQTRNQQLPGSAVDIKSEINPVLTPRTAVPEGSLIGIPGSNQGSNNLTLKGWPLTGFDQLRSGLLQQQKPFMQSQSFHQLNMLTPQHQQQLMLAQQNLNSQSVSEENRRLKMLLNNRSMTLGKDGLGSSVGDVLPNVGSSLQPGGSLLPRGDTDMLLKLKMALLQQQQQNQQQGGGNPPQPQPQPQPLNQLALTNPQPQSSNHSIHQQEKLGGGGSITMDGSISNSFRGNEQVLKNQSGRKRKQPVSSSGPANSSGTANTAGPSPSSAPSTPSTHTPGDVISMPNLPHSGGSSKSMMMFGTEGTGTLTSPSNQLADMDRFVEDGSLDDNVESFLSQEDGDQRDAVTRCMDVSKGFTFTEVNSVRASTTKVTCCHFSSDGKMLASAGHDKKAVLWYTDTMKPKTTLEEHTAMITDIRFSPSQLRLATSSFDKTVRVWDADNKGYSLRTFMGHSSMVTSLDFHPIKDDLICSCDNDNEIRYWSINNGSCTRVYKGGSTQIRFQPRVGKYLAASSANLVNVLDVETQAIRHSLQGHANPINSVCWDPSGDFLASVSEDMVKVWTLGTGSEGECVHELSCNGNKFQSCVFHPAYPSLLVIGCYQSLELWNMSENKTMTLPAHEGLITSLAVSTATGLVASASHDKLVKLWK
In words: yeast two-hybrid.

Assay [2] has as its target T2, HUB1 (Histone Monoubiquitination 1), At2g44950, Arabidopsis thaliana (Arabidopsis thaliana, UniProt Q8RXD6 1-878).
T2 construct: Full length HUB1; In the TAP experiments N-terminally fused to the TAP tag or the GS-TAP tag; in yeast two-hybrid fused to AD (pDEST22) or BD (pDEST32); all these constructs are written under this one entry; also called HUB1fl; full length HUB1
T2 sequence: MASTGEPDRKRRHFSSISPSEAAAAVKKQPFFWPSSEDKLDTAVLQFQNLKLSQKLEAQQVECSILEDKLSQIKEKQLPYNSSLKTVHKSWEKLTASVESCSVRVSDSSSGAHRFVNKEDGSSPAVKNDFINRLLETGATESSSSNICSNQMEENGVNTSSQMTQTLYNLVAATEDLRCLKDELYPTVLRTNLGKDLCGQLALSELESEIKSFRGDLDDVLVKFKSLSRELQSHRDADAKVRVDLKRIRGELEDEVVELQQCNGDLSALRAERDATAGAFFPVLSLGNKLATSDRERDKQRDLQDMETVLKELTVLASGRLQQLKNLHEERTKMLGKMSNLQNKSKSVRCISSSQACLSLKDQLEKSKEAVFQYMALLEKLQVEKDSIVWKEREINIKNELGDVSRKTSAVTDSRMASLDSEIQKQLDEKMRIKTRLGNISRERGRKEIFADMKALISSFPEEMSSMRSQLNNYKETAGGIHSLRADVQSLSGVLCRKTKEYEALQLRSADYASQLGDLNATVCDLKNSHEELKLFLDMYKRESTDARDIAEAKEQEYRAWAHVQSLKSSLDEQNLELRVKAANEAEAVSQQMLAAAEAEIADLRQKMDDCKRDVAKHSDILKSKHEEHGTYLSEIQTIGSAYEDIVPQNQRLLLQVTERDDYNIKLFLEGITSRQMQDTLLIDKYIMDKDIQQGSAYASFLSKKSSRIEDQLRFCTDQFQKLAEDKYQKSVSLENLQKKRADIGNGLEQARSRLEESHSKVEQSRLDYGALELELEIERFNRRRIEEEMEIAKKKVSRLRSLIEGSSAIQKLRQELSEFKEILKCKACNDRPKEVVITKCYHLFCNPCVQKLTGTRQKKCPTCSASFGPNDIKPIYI
In words: TAP with N-terminally TAP-tagged HUB1, mass spectrometry; column To be confirmed (interacted only once). The procedure: Because the RING proteins have their functionally important domain at the C-terminus, an N-terminal fusion was prepared instead of the traditional C-terminal fusion by cloning both full length and the point mutant form of HUB1 (HUB1pm, HUB1fl). The Arabidopsis cell cultures were transformed with the two constructs and cultivated on 10 litre scale, harvested and purified by TAP (Van Leene et al., Mol. Cell. Proteomics 6, 1226-38, 2007). The protein extracts were separated on 1-D SDS-PAGE gels and isolated from gel for protein identification by mass spectrometry (Laukens et al., Proteomics. 4, 720-7, 2004, Van Leene et al., 2007). Two cut offs were used resulting in “confirmed” and “to be confirmed” candidate interactor lists (Table I).
In the data set of confirmed interactors TAP HUB1 and HUB2 were present, […] the dimer formation between the homologues. In addition, the acetyltransferase GCN5, RNA binding proteins and a KH domain protein were identified as HUB1 interacting proteins. Most of these proteins are known to be localized in nucleus or nucleoli. GFP constructs of HUB1 have also been localized to nucleus (Liu et al., 2007). When HUB1pm was used for TAP purification no HUB2 could be identified as an interacting protein.

Assay [3] deals with UBC2, At2g02760 (Arabidopsis thaliana) (UniProt P42745). Kind of assay: GS-TAP purification + MALDI-TOF-TOF MS, bait UBC2 (second block, as the rows stand); expectance is the MS identification score.
Sequence of UBC2, At2g02760 (Arabidopsis thaliana) (P42745 whole entry): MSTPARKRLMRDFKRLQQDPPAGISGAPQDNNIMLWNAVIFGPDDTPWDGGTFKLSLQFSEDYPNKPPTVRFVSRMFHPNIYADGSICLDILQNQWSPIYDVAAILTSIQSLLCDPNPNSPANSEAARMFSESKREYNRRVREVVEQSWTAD

B1: SEUSS, At1g43850 (other, Arabidopsis thaliana, UniProt Q8W234 1-877, looked up)
chain: MVPSEPPNPVGGGENVPPSILGGQGGAPLPSQPAFPSLVSPRTQFGNNMSMSMLGNAPNISSLLNNQSFVNGIPGSMISMDTSGAESDPMSNVGFSGLSSFNASSMVSPRSSGQVQGQQFSNVSANQLLAEQQRNKKMETQSFQHGQQQSMQQQFSTVRGGGLAGVGPVKMEPGQVSNDQQHGQVQQQQQKMLRNLGSVKLEPQQIQAMRNLAQVKMEPQHSEQSLFLQQQQRQQQQQQQQQFLQMPGQSPQAQMNIFQQQRLMQLQQQQLLKSMPQQRPQLPQQFQQQNLPLRPPLKPVYEPGMGAQRLTQYMYRQQHRPEDNNIEFWRKFVAEYFAPNAKKRWCVSMYGSGRQTTGVFPQDVWHCEICNRKPGRGFEATAEVLPRLFKIKYESGTLEELLYVDMPRESQNSSGQIVLEYAKATQESVFEHLRVVRDGQLRIVFSPDLKIFSWEFCARRHEELIPRRLLIPQVSQLGSAAQKYQQAAQNATTDSALPELQNNCNMFVASARQLAKALEVPLVNDLGYTKRYVRCLQISEVVNSMKDLIDYSRETRTGPIESLAKFPRRTGPSSALPGPSPQQASDQLRQQQQQQQQQQQQQQQQQQQQQQQQTVSQNTNSDQSSRQVALMQGNPSNGVNYAFNAASASTSTSSIAGLIHQNSMKGRHQNAAYNPPNSPYGGNSVQMQSPSSSGTMVPSSSQQQHNLPTFQSPTSSSNNNNPSQNGIPSVNHMGSTNSPAMQQAGEVDGNESSSVQKILNEILMNNQAHNNSSGGSMVGHGSFGNDGKGQANVNSSGVLLMNGQVNNNNNTNIGGAGGFGGGIGQSMAANGINNINGNNSLMNGRVGMMVRDPNGQQDLGNQLLGAVNGFNNFDWNA
notes: As prey endogenous; as bait N-terminal GS-TAP fusion; in yeast two-hybrid an AD fusion
In the case of B1, the binding result in assay [1] and in assay [2] was “binds” in each case. Moreover, the Expectance in assay [3] amounted to 1e-24.

For the origin of these results see patent publication US20110162109A1 (BASF PLANT SCIENCE, published 2011).
